Data: patent US20060171935A1, “Protecting cell therapy for neurological disorders including Parkinson's disease” (priority 2005, published 2006)

B1: RNase A: negative control protein, from Sigma (protein, UniProt P61823 27-150, looked up)
Ribonuclease pancreatic: KETAAAKFERQHMDSSTSAASSSNYCNQMMKSRNLTKDRCKPVNTFVHESLADVQAVCSQKNVACKNGQTNCYQSYSTMSITDCRETGSSKYPNCAYKTTQANKHIIVACEGNPYVPVHFDASV

Experiments:
[1] = test system: DJ-1 deficient dopamine neurons; experiment: 6-OHDA sensitivity of ES-derived dopamine neurons, 3H-dopamine uptake; format: cell-based, murine; conditions: 9 DIV, 72 h exposure
Text: (A) The SDIA coculture method. DJ-1 knockout or control heterozygous ES cells are cocultured with mouse stromal cells (MS5) in the absence of serum and leukemia inhibitory factor for 18 DIV. (B) DN production was quantified at 18 DIV by 3H-dopamine uptake assay. DJ-1-deficient ES cell cultures were defective relative to heterozygous control cultures. (C-D) Neuron production was quantified by immunohistochemical analysis as a percent of TuJ1-positive colonies that express TH (C) or GABA (D). Quantification of TH and GABA immunostaining was performed on all colonies in each of three independent wells. Colonies were scored as positive if any immunostained cells were present. *p≦0.05. […] (F) Kinetic analysis of DN differentiation in DJ-1-deficient cultures (clone 32, solid square) and heterozygous controls (open circle) as quantified by 3H-dopamine uptake assay. *p≦0.05. […] DNs were quantified by 3H-dopamine uptake assay. Data represent the means±SEM and were analyzed by ANOVA followed by Fisher's post-hoc test. *p≦0.05. […]
In Vivo Assays. […] Cell viability (as a percent of untreated control) was determined by MTT assay in triplicate (Fezoui et al. 2000). […] Reported values represent specific uptake from which non-specific uptake, determined in the presence of mazindol, was subtracted, and normalized for protein content (BCA kit, Pierce).

cerebellar granule cells = experiment: Parkin overexpression in kainate-treated cerebellar granule cells; format: cell-based, mice; conditions: 500 μM for 24 h
Experimental: Cerebellar granule neurons from P6 mice were purified and transfected essentially as described (Scheiffele et al., Neuroligin expressed in nonneuronal cells triggers presynaptic development in contacting axons. Cell, 101:657-69, 2000). Dissociated cortical neurons from E16.5 mice were prepared and cultured as described (Scheiffele et al., Neuroligin expressed in nonneuronal cells triggers presynaptic development in contacting axons. Cell, 101:657-69, 2000). Primary midbrain cultures were prepared from E13.5 mouse embryos, as described (Hynes et al., Induction of midbrain dopaminergic neurons by Sonic hedgehog. Neuron, 15:35-44, 1995). Cells were treated for 24 h with or without kainate (250 or 500 μM as indicated; Sigma) or MPP^+ (1 or 10 μM as indicated; Sigma), stained for 20 min with 0.5 μg/ml Hoechst 33342 (Sigma), and visualized by fluorescence microscopy. For granule cell assays, at least 100 cells in two 20× fields were scored in duplicate for GFP and/or Hoechst signal. […] Cells were washed, incubated for 1 h at room temperature with appropriately-labeled secondary antibodies, and visualized by fluorescence microscopy. For midbrain culture experiments, DAT-specific immunoreactivity (pixels), and cytoplasmic parkin and cyclin E immunoreactivity (mean pixel density), were quantified in triplicate, across nine fields of view, at 20× using Image software (Scion). […]

insulin = experiment: Aggregation suppression of DTT-reduced insulin B chains; format: biochemical; conditions: insulin 26 μM, 20 mM DTT, 25° C.
Experimental: FIG. 22 illustrates that DJ-1 is a redox-dependent molecular chaperone. (A) Aggregation of CS was monitored at 43° C. after addition of either 0.8 μM CS alone (black), or along with 8.0 μM RNase A (purple), 0.5 μM DJ-1 (aqua), 2.0 μM DJ-1 (blue), 4.0 μM DJ-1 (red), or 2.0 μM Hsp27 (green). (B) Aggregation of 0.8 μM CS after 30 min at […] (unfilled bar) is inhibited by 4.0 μM WT DJ-1 (black bar) but not 4.0 μM L166P mutant DJ-1 (gray bar). Data are shown as the mean±SEM and were analyzed by ANOVA with Fisher's post-hoc test. *p<0.05. (C) Aggregation of insulin (26 μM) B chains induced by 20 mM DTT at 25° C. Insulin alone (black) or in the presence of 4.0 μM RNase A (purple), 0.5 μM DJ-1 (aqua), 2.0 μM DJ-1 (blue), 4.0 μM DJ-1 (red), or 2.0 μM Hsp27 (green). […] (gray bar). Further treatment of DTT-reduced DJ-1 with 10 mM H2O2 for 10 min at 4° C. leads to reactivation of CS suppression (hatched bar). Data are shown as the mean±SEM and were analyzed by ANOVA with Fisher's post-hoc test. *p<0.05.
CS aggregation was performed in 40 mM HEPES (pH 7.8), 20 mM potassium hydroxinde, 50 mM potassium chloride, and 10 mM ammonium sulfate, and monitored in a thermostat-controlled fluorescence spectrophotometer with excitation and emission wavelengths at 500 nm and slit widths at 2.5 nm. Insulin aggregation was performed as described (Giasson et al. 2000). […]

αSyn [2] = target: T1, αSyn (Homo sapiens, UniProt P37840); experiment: αSyn protofibril formation in vitro; format: biochemical; conditions: molar ratio 1:2 (DJ-1: αSyn), 2 h at 55° C.
Experimental: αSyn protofibril and fibril formation assays were performed essentially as described (Uversky et al.). Briefly, protofibrils were formed by incubation of 200 μM WT synuclein with 100 μM DJ-1 or control chaperone protein in PBS for 2 h at 55° C. Samples were mixed with SDS loading buffer and analyzed by SDS-PAGE and Western blotting using αSyn LB509 antibody (Zymed). Quantitation of high molecular weight αSyn was performed using NIH Image J. Integrated pixel intensity of high molecular weight synuclein for each sample was normalized to monomeric synuclein intensity. For fibril formation, αSyn and chaperone proteins (as described above) were incubated with shaking for 1 wk at 37° C. Fibril formation was assessed by Congo red (Conway et al. 2000b).

αSyn [3] = target: T1, αSyn; experiment: αSyn Congo red-positive fibril formation in vitro; format: biochemical; conditions: 200 μM αSyn, proteins 100 μM, 1 wk at 37° C.
Experimental: αSyn protofibril and fibril formation assays were performed essentially as described (Uversky et al.). […] For fibril formation, αSyn and chaperone proteins (as described above) were incubated with shaking for 1 wk at 37° C. Fibril formation was assessed by Congo red (Conway et al. 2000b).

citrate synthase (CS) = target: T2, citrate synthase (CS) (Sus scrofa, UniProt P00889); experiment: Suppression of heat-induced aggregation of citrate synthase (chaperone assay); format: biochemical; conditions: 0.8 μM CS, 43° C.
T2 construct: purchased Sigma
T2 sequence (P00889 28-464): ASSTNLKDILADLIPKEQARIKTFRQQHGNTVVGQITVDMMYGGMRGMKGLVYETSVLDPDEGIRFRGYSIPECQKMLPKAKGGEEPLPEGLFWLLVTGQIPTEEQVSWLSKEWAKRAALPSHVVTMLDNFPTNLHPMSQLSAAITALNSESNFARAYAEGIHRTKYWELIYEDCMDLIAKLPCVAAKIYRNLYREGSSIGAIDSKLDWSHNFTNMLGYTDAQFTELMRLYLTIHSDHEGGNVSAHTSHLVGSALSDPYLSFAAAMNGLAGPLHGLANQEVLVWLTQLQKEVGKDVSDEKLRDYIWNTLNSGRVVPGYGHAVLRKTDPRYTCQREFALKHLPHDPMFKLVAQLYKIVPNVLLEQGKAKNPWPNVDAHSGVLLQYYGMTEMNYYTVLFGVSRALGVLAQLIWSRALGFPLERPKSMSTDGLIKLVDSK
Experimental: To test the redox regulation of DJ-1, the inventors assayed chaperone activity in the CS aggregation assay in the presence or absence of the reducing agent DTT. […] (FIG. 22D). […] To further test whether redox regulation might govern DJ-1 chaperone activity, reactivation studies using reduced DJ-1 were performed. DTT-reduced DJ-1 was incubated with H2O2 (10 mM in aggregation buffer for 10 min at 4° C. followed by dialysis against aggregation buffer for 2 h), and subsequently chaperone activity was measured in the CS thermal aggregation assay. […] This was not an indirect effect of residual H2O2 on CS aggregation, as H2O2 treatment of CS increased aggregation (unpublished data).
CS aggregation was performed in 40 mM HEPES (pH 7.8), 20 mM potassium hydroxinde, 50 mM potassium chloride, and 10 mM ammonium sulfate, and monitored in a thermostat-controlled fluorescence spectrophotometer with excitation and emission wavelengths at 500 nm and slit widths at 2.5 nm. Insulin aggregation was performed as described (Giasson et al. 2000). CS, insulin, RNase A, and GST were obtained from Sigma; human Hsp27 was obtained from Stressgen.

| Molecule | aggregation suppression of reduced insulin (insulin) | formation of soluble αSyn protofibrils (αSyn [2]) | further results |
| --- | --- | --- | --- |
| NCCc1cc(O)c(O)cc1O [6-OHDA, 6-hydroxydopamine] |  |  | sensitivity of DJ-1 deficient dopamine neurons to toxin [1]: increased sensitivity |
| C=C(C)[C@H]1CN[C@H](C(=O)O)[C@H]1CC(=O)O [kainate] |  |  | effect of toxin on cyclin E in granule cell cultures (cerebellar granule cells): led to the accumulation of cyclin E |
| Hsp27: well-described small cytoplasmic chaperone, human Hsp27, from Stressgen; positive control [reference compound] | effectively inhibited | failed to inhibit |  |
| glutathione S-transferase [GST] |  | failed to inhibit | formation of Congo red-positive αSyn fibrils (αSyn [3]): did not |
| B1 | neither DJ-1 nor the negative control protein RNase A displayed chaperone activity |  | suppression of heat-induced aggregation of CS (chaperone activity) (citrate synthase (CS)): failed to demonstrate chaperone activity |
